# What was measured:
# [1] = biological target: Recombinant human Flt-1/Fc chimera (R&D Systems) (human) (UniProt P17948); assay: fluorescence plate assay; control peptide at 100 µM on immobilized Flt-1/Fc
# [2] = biological target: Recombinant human Flt-1/Fc chimera (R&D Systems) (human) (UniProt P17948); assay: fluorescence plate assay; control peptide at 1 µM on immobilized Flt-1/Fc
# [3] = biological target: Recombinant human Flt-1/Fc chimera (R&D Systems) (human) (UniProt P17948); assay: fluorescence plate assay; control peptide at 0.1 µM on immobilized Flt-1/Fc
# [4] = biological target: Recombinant human Flt-1/Fc chimera (R&D Systems) (human) (UniProt P17948); assay: fluorescence plate assay; control peptide at 0 µM on immobilized Flt-1/Fc
# [5] = biological target: Recombinant human Flt-1/Fc chimera (R&D Systems) (human) (UniProt P17948); assay: fluorescence plate assay; control peptide at 10 µM on immobilized Flt-1/Fc
# Sequence of Recombinant human Flt-1/Fc chimera (R&D Systems) (human) (P17948 other isoform, or with tags, fused parts or gaps mutant limits assumed): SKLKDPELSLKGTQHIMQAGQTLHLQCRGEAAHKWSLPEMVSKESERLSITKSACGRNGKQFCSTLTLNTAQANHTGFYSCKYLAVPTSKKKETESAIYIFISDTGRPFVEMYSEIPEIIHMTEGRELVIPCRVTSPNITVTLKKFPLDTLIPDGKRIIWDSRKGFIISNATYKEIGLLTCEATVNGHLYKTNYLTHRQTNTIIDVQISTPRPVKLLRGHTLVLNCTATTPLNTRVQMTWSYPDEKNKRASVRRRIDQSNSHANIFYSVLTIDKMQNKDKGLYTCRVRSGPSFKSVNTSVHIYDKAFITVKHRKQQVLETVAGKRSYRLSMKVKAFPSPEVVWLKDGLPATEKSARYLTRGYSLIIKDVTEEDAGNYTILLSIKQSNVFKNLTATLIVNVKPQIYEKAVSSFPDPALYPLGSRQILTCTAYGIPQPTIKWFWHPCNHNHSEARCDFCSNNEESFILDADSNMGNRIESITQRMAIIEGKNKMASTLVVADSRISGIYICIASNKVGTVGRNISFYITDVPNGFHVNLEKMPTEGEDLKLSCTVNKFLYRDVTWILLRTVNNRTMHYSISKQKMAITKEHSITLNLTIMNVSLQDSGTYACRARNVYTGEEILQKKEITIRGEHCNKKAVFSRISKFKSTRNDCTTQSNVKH
substance,measurement,setting,value
Control peptide (Table 5),Fluorescence,[1],1100
same,Fluorescence,[2],20
same,Fluorescence,[3],7
same,Fluorescence,[4],0
same,Fluorescence,[5],493
